Assay: label from the status in PepcDB records

Sequence | protein production
MNHFTPAQQRKALGYLVLFHLVIIASSNYLVQIPFTIFGFHTTWGAFTFPFIFLATDLTVRIFGAGLARKIIFLVMLPALAVSYLLSVVFFEGQYQGLAPLSEFNLFVARIAIASFMAYLLGQIMDVHVFNRLRQMKQWWVAPTCSTLFGNALDTIAFFSIAFYQSSDPFMAEHWTEIALVDYTFKLIISLGLFVPMYGVLLNYLIKKLTAVNPNFAMASAKA | failed
MNHLISVGALESFLVAISVLFLGHFINAKLPILKKFNIPEPIVGGLIVACIITALHFNGVDLEFDLPLQNTFMLMFFATVGLAANYTQLMKGGAKVFIFLAVASFYIIIQNGVGVSLAAALGLDPLMGLIAGSITLSGGHGTGAAWSQTFQDVYGLNNVLEIAMASATFGLIIGGIIGSPVAQRLVEKHGIESEYGRGGRDAKTHEKFPELVTYNEYEEDKVTAKKVVEKLFFLLICVTGAKYVEQWVSTYEISWLMIPDFVYALFIGVIITNFLEVTKIRKLDAETVDMLGTVSLSLFLAMALMSLKLWNIFDLAIPFLVILAIQSVILAIFTYYVTFKVMGSNYDAAVISGGHCGFGLGATPTAVMNMGSIVNRFGPSPQAFMVVPIVGAFFIDIVNLIILQGYISFLG | failed
MNHLPEKMRPYRDLLEKSAKEYVKLNVRKGKTGRYDSKIAGDPYFPKHETYPTDENGQPMKLLAQINFSHIPQLDGYPSSGILQFYISVHDDVYGLNFDDRCEQKNFRVIYFENIVENDDELVSDFSFIGTGECDFPILSEAAVEPVKSSEWVLPTDFQFEQYTGMETMEFFGQFGEDEEDIYNELAENGFGHKIGGYASFTQHDPREYAYKEHTIMLLQIDSDDDIDSMWGDVGIANFFITPEDLRKKDFSNVLYNWDCS | not failed
MNHTSDTALLIVNLGTPEAPTAAAVRRYLGEFLSDRRVVSIPPLFWKPLLHMVILPIRGPRSASKYAKVWLQEGSPLSVYTRRIAEGLTQHLPDWRVAWAMRYGAPALTKALDALQAQQVRRIVILPLYPQYSTTTTASVQDVVEAWCKRTPQVQVECIQDYAEDPAWVAAVAASIRRHWQAHGRSEKLMFSFHGLPQRVANNGDPYPQRCQVSASLIAAALNLNESEWVLGYQSRFGAERWLQPYAEPTLWALAESGIRRFDLVCPGFSVDCLETLEEVALGFSETLAARGATMRYIPCLNDDPAHVQALAGLAQRALP | failed
MNIAEQMKDVLKEEIKAAVLKAGLAEESQIPNVVLETPKDKTHGDYSTNMAMQLARVAKKAPRQIAEEIVAHFDKGKASIEKLDIAGPGFINFYMNNQYLTKLIPSVLEAGEAYG | failed
MNIETLMIKNPPILSKEDRLGSAFKKINEGGIGRIIVANEKIEGLLTTRDLLSTVESYCKDSCSQGDLYHISTTPIIDYMTPNPVTVYNTSDEFTAINIMVTRNFGSLPVVDINDKPVGIVTEREFLLLYKDLDEIFPVKVFMSTKVQTIYKEVRLDQAVKLMLRRGFRRLPVIDDDNKVVGIVTVVNAIKQLAKAVDKLDPDYFYGKVVKDVMVTNLVTIDELASVNRAAAEMIVKRIGSLLILNKDNTIRGIITERDLLIALHHILVMEKFKEKL | not failed
MNIILLSGKKSEAQPGDGEYPEYLCEYNGKPLIHTLIDNCAALEPRRIICTFSNDDVIGLHLRNMVQQMHPSASVLPVHNITQGAACTALLASGQIDNDDELLILSVSDFLDIELREVLRVFREANEDAGVVIFNSLHPRYSFARLDSDQRVIEAAEKNPISPHAIAGMYWFKSGSLFVSAAKEMIRKDARVNDHFYIAPALNELVLLHKKIGAYRIEPRQYRPLKTQNQLHAFEMADIR | failed
MNIILNVFLIFVSAILTKLFALFAQHTKLIDIPNERNLHSRPTVRGGGLVFIGLSLFCWFFICNSQFFLTLDQFIFSIAIIFIATISFIDDFYNLSVTIRFFFQCLIAFLIVIFILPSQLDFGLFLFENTYLIAFFLFFAVIWAINHFNFMDGLDGFCASQAIFLLAAYALFFNSAGSLIYQDFCLILISSLAGFLIFNFPPAKIFMGDVGSASLGLITFFIAIIAQKNYQIPILYWFILNSLFLFDSTVTLIRRIIKHEKWFSPHKKHAYQRLKQLGINSRFILLGQAIINGSLFLSVMFMHFQFFNLKNLIIIQLCYLSAIYFFIEKKYPME | failed
MNINIEDLIFSLDIGTRTVIGTVGSIKDKKFSVIAEKHTEHEERAMVDGQIHDINLVARAVNKVKSQIEEELGFELKDVAIAAAGRFLRTTAVRSELNIDEDKEIDKDVIRGLELTAVKKAQDEVNKETEGKLYCVGYSVKNYFLNGYAISNLLSHKGNSIAVDVIATFLPRSIVESLYAVMNKVNLNVKSLTLEPIAAMEAAVPKNLRLLNIALLDVGAGTSDIAISSKDTISAYGMVPFAGDEITEVIAQNYLVDFNTAENIKRSCNVDTEIKYTDVLGIENTIKSEEVIKLIQPTVQKLAEEVANKIIELNGEKSPNAVFIVGGGAHTPMLKDLLAENLKIQPQRLAIKGRESVTDCICTDNSLGSTGVTVLGIALVAIRRFGNDFIDVILNDNIISLFNARVHTVKDVVVQAGVNPKLLIGKNGKNVRFILNGVKRVAFGTVAKNAEIRINGLIANIDSEVKENDKIEIKYAENGIDASPIIKDYVKNLYSLGFFIDDEVVNLEPIFIINGNKVTIDTEISEGDEVETVYPSKLIHYIRYYDSDLNKEYYINNIKLDENYDIKEGDRIYTKPKEEEQEVEIIPLAEEDKEEQEVVSHPKEIEKEDDDVNTIVVVVNGNPIKMSGKEKYKFVDIFDYFKFDLTQVKGNLVLTLNGEKVSFFDELHDKDIIEVKWE | failed
MNIPVEVEVAEVLTDSAATGIFEPGDKLLSIDGTAISTPGDAQTIVRSKAPGDEITISYERNDAESQATITLREHPLEHHHHHH | failed
MNIQALLSEKVSQALIAAGAPADCEPQVRQSAKVQFGDYQANGVMAVAKKLGMAPRQLAEQVLSHLDLNGIANKVEIAGPGFINIFLDPAFLADNVNRALQSERLG | not failed
MNIRERKRKHLEACLEGEVAYQKTTTGLEGFRLRYQALAGLALSEVDLTTPFLGKTLKAPFLIGAMTGGEENGERINLALAEAAEALGVGMMLGSGRILLERPEALRSFRVRKVAPKALLIANLGLAQLRRYGRDDLLRLVEMLEADALAFHVNPLQEAVQRGDTDFRGLVERLAELLPLPFPVMVKEVGHGLSREAALALRDLPLAAVDVAGAGGTSWARVEEWVRFGEVRHPELCEIGIPTARAILEVREVLPHLPLVASGGVYTGTDGAKALALGADLLAVARPLLRPALEGAERVAAWIGDYLEELRTALFAIGARNPKEARGRVERV | not failed
MNISEINGFEVTGFVVRTTNADEMNPMTAKIGNLWEKFYLNAAPKLTDKSKVYGLYTNYESDFTGAFDVIACSDTLSPQLLSESVKTKVSSGKYVTFSATGEMPQVVIDLWNEVWNYFASEHCPHKRAYTTDFEYYKSANTVEISIAVR | not failed
MNIVIAVGILVTLVTGIPVLLQLLKGHPRGLIICFLAEMWERFSYYGMRAILIFYLTQHFLFDPKAASGHYGSYTALVYLVPLIGGFLADKWLGTRKAVAFGAVLLVAGHLAMAIEGKPAVQTLTYQGATYEFQAEGRGQNREAKLVVDGKAYEVAATKVGDFEIKGLPANAPLPAVLPKADYKLDVAGRDPLYLNIFWFSLSLIILGVGFLKPNISTIVGQLYPQGDPRRDPGFTLYYYGINLGSFWASILCGLLGVNVGWWAGFGLAGVGMLAGFIVFVLGKPWLDGKAEPPEPKVLKEKVAGPINRELAIYGLSLVGLVGIFFLVQFNAIVGVALNIGILASLGYIGFFMFTKCAKEERERLALAVFLIFGAVVFWTLFEQAGSSLSLFAATNVQLDLVREPLRLFSGAVTLATPDQLAKAGIDAASTFWVDTSFNAPQTQALNAGWILIFAPVFAAVWTFLGARGKDPNPVIKFGLALIQVGAGFLLLQWGSTFADGAFKLPLIFLVLMYMLHTTGELCMSPVGLSQMTKLSPASVVSFMMAVWFLAVAIAQWVGGKIAGLAATETVGGQVLDPGAALAASLKVFNIIGLVAVAIGIGFLLLSPVLKKWSHGADNVGAPKKA | failed
MNIVLFHSTLGPRPAVRQAADRLRDAGHQVWTPDLFEGRTFDTVEEGMAHQDGIGREELLKRAVLAAAPYSERGLVYAGFSLGASIAQTLALGDHRARGLLLLHGTSDLAPNASVDELPVQLHVAEPDPFETDDWLSAWYLQMGRIGADVEVHRYPGAGHLYTDPGLDDYDAEAAEATWRVALGFLESLQEAQAGE | failed
MNIVSQLSPVTLSPELIARFTAIVGDKHALTDPLELEAYITEERNLYRGHSPLVLRPGSTEEVVAICKLANEARVALVPQGGNTGLVGGQTPHNGEVVISLKRMDKIREIDTSSNTITVEAGAILQRVQEKAAEVDRLFPLSLGAQGSCTIGGNLSTNAGGTAALAYGLARDMALGVEVVLADGRVMNLLSKLKKDNTGYDLRDLFIGAEGTLGIITAATLKLFPKPRAVETAFVGLQSPDDALKLLGIAQGEAAGNLTSFELIAETPLDFSVRHANNRDPLEARYPWYVLIELSSPRDDARAALESILERGFEDGIVVDAAIANSVQQQQAFWKLREEISPAQKPEGGSIKHDISVPVAAVPQFIEQANAAVVALIPGARPVPFGHLGDGNIHYNVSQPVGADKAEFLARWHDVSQVVFEVVLRLGGSISAEHGIGVMKRDELAEVKDKTAIELMRSIKALLDPHGIMNPGKVV | not failed
MNKAITVIVWLLVSLCVLAIITMPVSLQTHLVATAISLILLATIKSFNGQGAWRLVALGFGTAIVLRYVYWRTTSTLPPVNQLENFIPGFLLYLAEMYSVVMLGLSLVIVSMPLPSRKTRPGSPDYRPTVDVFVPSYNEDAELLANTLAAAKNMDYPADRFTVWLLDDGGSVQKRNAANIVEAQAAQRRHEELKKLCEDLDVRYLTRERNVHAKAGNLNNGLAHSTGELVTVFDADHAPARDFLLETVGYFDEDPRLFLVQTPHFFVNPDPIERNLRTFETMPSENEMFYGIIQRGLDKWNGAFFCGSAAVLRREALQDSDGFSGVSITEDCETALALHSRGWNSVYVDKPLIAGLQPATFASFIGQRSRWAQGMMQILIFRQPLFKRGLSFTQRLCYMSSTLFWLFPFPRTIFLFAPLFYLFFDLQIFVASGGEFLAYTAAYMLVNLMMQNYLYGSFRWPWISELYEYVQTVHLLPAVVSVIFNPGKPTFKVTAKDESIAEARLSEISRPFFVIFALLLVAMAFAVWRIYSEPYKADVTLVVGGWNLLNLIFAGCALGVVSERGDKSASRRITVKRRCEVQLGGSDTWVPASIDNVSVHGLLINIFDSATNIEKGATAIVKVKPHSEGVPETMPLNVVRTVRGEGFVSIGCTFSPQRAVDHRLIADLIFANSEQWSEFQRVRRKNPGLIRGTAIFLAIALFQTQRGLYYLVRARRPAPKSAKPVGAVK | failed
MNKAVETRLNKSRPGGWIPRDGAHIERWIRRIKHYVTQQPRALVPPIAELRDLVHANPALHAQAEAMFKEAWRHKHLTPLGQPEVRSFEEFLGLLNGIMTTAPEAYQDIPSHEPSGLIGFPINALLDWPMATQSGYHFFANALINQQFKKILDYWAQFLQSPASRYVLNEPVSRLDQETLVVPWLGKVAKAEMVKVANEAVGEGPNPTPGSFEQIFECEPAAEYHGFSCWDDFFTRRFRAGVRPVSAPTDDGVIVNACESAPLQVRKEVSRSDQFWLKGQPYSLDNMLDFDDLAPRFEGGTVYQAFLSALSYHRWHSPVSGTIRKVRIVNGTYYLENQFEGFADPQGADPSAPNNSQPFLTSVATRALIFIEADNPKIGLMCVVPVGMAEVSSCEITVQAGDRVQKGDPLGMFHFGGSTHCLLFRPGVRLEFDFHGQIPGLDATNMRLNTAIARVK | failed
MNKEQLQQMRQAPGFVGALDQSGGSTPKALKAYGIQPDAYQSEEEMFDLIHQMRTRMITSPAFATGKIIGVILFERTMRGKIEGMPTADFLWEKRHIVPFLKVDKGLQDEANGVQLMKPFPELGKLCEEAVGYHVFGTKMRSVIKQANEQGIRDIVEQQFQWGKEILSHGLVPILEPEVDIHCPEKAKAEEILKRELLAQLDKMTEPVMLKITIPTVDNFYKEIIEHPMMLRVVALSGGYSREQANELLSRNHGVIASFSRALVEGLSARQTDAEFNAMLEASIEDVYQASIK | not failed
